Test results taken from patent US20240035010, “COMPOSITIONS COMPRISING A VARIANT POLYPEPTIDE AND USES THEREOF” (Arbor Biotechnologies, Inc., published 2024).

Target: T1, variant nuclease SEQ ID NO: 53 (P14R, D32R, I61R, E311R, T338G, E736G)
T1 chain: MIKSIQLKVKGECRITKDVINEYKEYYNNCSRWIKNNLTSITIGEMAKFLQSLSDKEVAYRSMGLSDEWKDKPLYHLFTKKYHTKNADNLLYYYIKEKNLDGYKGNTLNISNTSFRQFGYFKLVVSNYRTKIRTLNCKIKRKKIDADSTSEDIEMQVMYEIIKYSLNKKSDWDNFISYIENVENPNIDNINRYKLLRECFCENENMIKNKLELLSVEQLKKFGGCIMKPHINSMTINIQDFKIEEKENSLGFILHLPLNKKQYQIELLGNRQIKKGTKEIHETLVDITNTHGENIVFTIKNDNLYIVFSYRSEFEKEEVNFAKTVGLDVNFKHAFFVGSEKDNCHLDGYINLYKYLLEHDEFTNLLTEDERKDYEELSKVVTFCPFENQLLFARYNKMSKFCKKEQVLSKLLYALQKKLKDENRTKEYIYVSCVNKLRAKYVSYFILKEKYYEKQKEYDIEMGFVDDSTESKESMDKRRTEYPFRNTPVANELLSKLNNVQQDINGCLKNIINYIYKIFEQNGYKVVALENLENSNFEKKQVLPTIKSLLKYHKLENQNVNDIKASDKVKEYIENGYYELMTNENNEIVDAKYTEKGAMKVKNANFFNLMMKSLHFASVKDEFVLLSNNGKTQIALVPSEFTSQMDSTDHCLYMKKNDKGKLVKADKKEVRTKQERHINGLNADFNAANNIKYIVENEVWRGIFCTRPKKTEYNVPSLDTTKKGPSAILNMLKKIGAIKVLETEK
Experiment: cell_activity; % indels; HEK293T; PAM 5'-TTTG-3'
Conditions: tags: pcDNA3.1 expression

B1: AAVS1 crRNA ; AAVS1 target (ssRNA ; dsDNA)
RNA: CUUGUUGUAUAUGUCCUUUUAUAGGUAUUAAACAACUGAGAAUGGUGCGUCCUAGG
DNA 1: TGAGAATGGTGCGTCCTAGG
DNA 2: CCTAGGACGCACCATTCTCA
B1 was tested, and the indel editing activity was 6.11 fold of WT.
